We go through one molecule from patent US20230065226A1.

The test deals with mouse chemokine receptors (mouse). Description: cell-based or functional assay.

B1: (LD78β(C11S)Fv^315)2 vaccibody (protein, part only; not given: IgG3 hinge, CH3, scFv carrier, not shown: another chain or arm of the molecule; a dimerising Fc or GST; large carriers; small tags and cut ends)
chain: APLAADTPTASCFSYTSRQIPQNFIADYFETSSQCSKPSVIFLTKRGRQVCADPSEEWVQKYVSDLELSA
modifications: not fully specified (C-terminus); ends and bridges not checked; also: covalent homodimer via IgG3 hinge disulfides, C-terminal carrier (IgG3 hinge, CH3, scFv315) not in chain
As to B1, the ability to stimulate T cells (proliferation of Id^315-specific Th2 cells with BALB/c splenocytes as APC) is 100 fold.
